One substance from PMC2821024 can be followed below.

This assay addresses HuM7AIQ2 heavy chain, wild-type (human myosin VIIa Met1-Arg796, motor domain plus two IQ motifs) (human) (UniProt Q13402). The assay can be described thus: co-purification on anti-FLAG resin, SDS-PAGE densitometry.
UniProt Q13402, sequence (Q13402 1-796): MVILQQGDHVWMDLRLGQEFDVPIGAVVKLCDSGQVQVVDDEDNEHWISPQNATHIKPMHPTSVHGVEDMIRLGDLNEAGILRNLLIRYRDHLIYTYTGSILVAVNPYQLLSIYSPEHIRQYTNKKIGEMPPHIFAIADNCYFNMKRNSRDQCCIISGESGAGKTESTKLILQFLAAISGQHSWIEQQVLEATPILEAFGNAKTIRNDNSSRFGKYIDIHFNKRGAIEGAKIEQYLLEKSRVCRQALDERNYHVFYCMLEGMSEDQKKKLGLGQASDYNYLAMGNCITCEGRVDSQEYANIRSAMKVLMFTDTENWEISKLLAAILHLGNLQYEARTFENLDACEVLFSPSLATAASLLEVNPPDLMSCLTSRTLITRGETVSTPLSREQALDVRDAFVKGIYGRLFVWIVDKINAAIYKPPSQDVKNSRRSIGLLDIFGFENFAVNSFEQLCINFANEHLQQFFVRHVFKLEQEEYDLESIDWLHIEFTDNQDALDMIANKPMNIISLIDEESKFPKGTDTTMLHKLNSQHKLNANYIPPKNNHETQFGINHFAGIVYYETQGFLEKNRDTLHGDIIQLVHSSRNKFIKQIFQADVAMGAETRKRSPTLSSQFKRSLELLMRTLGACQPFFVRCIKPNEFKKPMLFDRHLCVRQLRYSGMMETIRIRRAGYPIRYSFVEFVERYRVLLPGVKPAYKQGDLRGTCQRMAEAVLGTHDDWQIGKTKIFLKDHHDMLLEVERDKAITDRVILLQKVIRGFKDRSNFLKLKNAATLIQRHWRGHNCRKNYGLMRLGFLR

Regarding “calmodulin (from UniProt P0DP23 1-149) (natural protein)”, the stoichiometry N (calmodulin per heavy chain) stood at 1.53.
